Assay results taken from US12201676B2, “Composition comprising diamine oxidase for use in the treatment or prevention of fibromyalgia or chronic fatigue syndrome” (DR HEALTHCARE ESPAÑA, S.L., priority 2011, dated 2025).

How the values were obtained:
[1] = test system: subjects diagnosed with chronic fatigue syndrome and with DAO deficit; assay: Efficacy of DAO compositions in chronic fatigue syndrome, grades of improvement on the CLINIC scale; assay type: in vivo, human; conditions: chronic fatigue syndrome grades II, III and IV with DAO deficit, 4 mg DAO twice a day, count of 23 subjects
Procedure: Oral compositions containing DAO of the present invention were tested in a total of 46 subjects diagnosed with chronic fatigue syndrome, as out-patients.
To evaluate the degree of affectation of chronic fatigue syndrome in candidate study subjects, the quality of life of these subjects was evaluated using a simple scale of 4 successive grades (I, II, III and IV), with criteria used in the clinic. This scale is used in the Chronic Fatigue Syndrome (CFS) Functional Unit in the Hospital Clinic.
The CLINIC scale consists of dividing the patients with chronic fatigue syndrome into four different grades of functional affectation depending on the effect of their fatigue on quality of life:
GRADE I: the patient is sometimes or occasionally fatigued, without significant limitation (<50%) of work or daily life activities.
GRADE II: persistent presence of fatigue, oscillating but without improvement, with marked effect (>50%) on work and also daily life activities.
GRADE IV: extreme fatigue that requires the help of other people for basic personal activities and that makes autonomy and the activities of daily life impossible.
Improvement is evaluated when the patient passes from a higher to a lower grade in terms of the number of improvement grades.

histamine level in blood = assay: Histamine level in blood of chronic fatigue syndrome subjects; assay type: in vivo, human; conditions: 4 mg DAO twice a day

B1: diamine oxidase (protein, UniProt P19801 20-751, looked up)
Diamine oxidase …: EPSPGTLPRKAGVFSDLSNQELKAVHSFLWSKKELRLQPSSTTTMAKNTVFLIEMLLPKKYHVLRFLDKGERHPVREARAVIFFGDQEHPNVTEFAVGPLPGPCYMRALSPRPGYQSSWASRPISTAEYALLYHTLQEATKPLHQFFLNTTGFSFQDCHDRCLAFTDVAPRGVASGQRRSWLIIQRYVEGYFLHPTGLELLVDHGSTDAGHWAVEQVWYNGKFYGSPEELARKYADGEVDVVVLEDPLPGGKGHDSTEEPPLFSSHKPRGDFPSPIHVSGPRLVQPHGPRFRLEGNAVLYGGWSFAFRLRSSSGLQVLNVHFGGERIAYEVSVQEAVALYGGHTPAGMQTKYLDVGWGLGSVTHELAPGIDCPETATFLDTFHYYDADDPVHYPRALCLFEMPTGVPLRRHFNSNFKGGFNFYAGLKGQVLVLRTTSTVYNYDYIWDFIFYPNGVMEAKMHATGYVHATFYTPEGLRHGTRLHTHLIGNIHTHLVHYRVDLDVAGTKNSFQTLQMKLENITNPWSPRHRVVQPTLEQTQYSWERQAAFRFKRKLPKYLLFTSPQENPWGHKRTYRLQIHSMADQVLPPGWQEEQAITWARYPLAVTKYRESELCSSSIYHQNDPWHPPVVFEQFLHNNENIENEDLVAWVTVGFLHIPHSEDIPNTATPGNSVGFLLRPFNFFPEDPSLASRDTVIVWPRDNGPNYVQRWIPEDRDCSMPPPFSYNGTYRPV
notes: Enzyme diamine oxidase
B1 was tested, and the “Number of grades of improvement: 1 (subjects)” value [1] was 16 of 23, the “Number of grades of improvement: 2 (subjects)” value [1] was 4 of 23 and the “Histamine level in blood” value (histamine level in blood) was 2-20 micrograms/0.1 L.
